± gives the uncertainty stated by the source.
Assay: self-splicing fitness, log relative to wild type (ln ratio); higher = more splicing; Tetrahymena group I intron in knt gene, E. coli kanamycin selection, DiMSum; sequences stand for … in CUCUCU…GGAGGGAAAAGUUAUCAGGCAUGCACCUGGUAGCUAGUCUUUAAACCAAUAGAUUGCAUCGGUUUAAAAGGCAAGACCGUCAAAUUGCGGGAAAGGGGUCAACAGCCGUUCAGUACCAAGUCUCAGGGGAAACUUUGAGAUGGCCUUGCAAAGGGUAUGGUAAUAAGCUGACGGACAUGGUCCUAACCACGCAGCCAAGUCCUAAGUCAACAGAUCUUCUGUUGAUAUGGAUGCAGUUCACAGACUAAAUGUCGGUCGGGGAAGAUGUAUUCUUCUCAUAAGAUAUAGUCGGACCUCUCCUUAAUGGGAGCUAGCGGAUGAAGUGAUGCAACACUGGAGCCGCUGGGAACUAAUUUGUAUGCGAAAGUAUAUUGAUUAGUUUUGGAGUACUCGUGGUCG
Procedure, shortened: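 DiMSum derived fitness as the error-weighted combination of fold changes across replicates, kanamycin versus no kanamycin, normalised to wild type. E. coli BL21(DE3) held the library, which randomised all eight P1ex-region intron nucleotides within the knt kanamycin-resistance gene on pET-22b(+). Six replicate transformations grew overnight at 37°C or 30°C on LB agar with or without 25 μg/mL kanamycin, also containing 100 μg/mL carbenicillin, 50 μM IPTG and 0.2% rhamnose, and pooled colonies were amplicon-sequenced on an Illumina HiSeq 2500.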

Row | Sequence | self-splicing fitness (ln) (30 °C) | self-splicing fitness (ln) (37 °C)
1 | AUCUAGCAAUAUUACGCACC | -0.201 ± 0.21 | -0.886 ± 0.38
2 | GAACAGCAAUAUUACGGCCA | -0.58 ± 0.18 | -0.441 ± 0.22
3 | GCCUAGCAAUAUUACGGUUU | -0.729 ± 0.05 | -0.56 ± 0.062
4 | GAAUAGCAAUAUUACGCUGG | -2.17 ± 0.33 | -0.278 ± 0.24
5 | GCGCAGCAAUAUUACGCAAC | -1.79 ± 0.14 | -0.576 ± 0.18
6 | CGGUAGCAAUAUUACGUAGA | -1.73 ± 0.053 | -1.89 ± 0.082
7 | CACGAGCAAUAUUACGAUAG | -3.14 ± 0.15 | -1.6 ± 0.18
8 | GUCAAGCAAUAUUACGCACU | -1.71 ± 0.062 | -0.433 ± 0.072
9 | ACAUAGCAAUAUUACGGUCA | -0.873 ± 0.13 | 0.165 ± 0.13
10 | CCCCAGCAAUAUUACGGAAG | -2.27 ± 0.088 | -1.73 ± 0.11
11 | AGGCAGCAAUAUUACGCAGU | -3.36 ± 0.2 | -1.55 ± 0.19
12 | CAGGAGCAAUAUUACGGGCA | -2.48 ± 0.15 | -2.35 ± 0.22
13 | ACUCAGCAAUAUUACGGUGC | -1.69 ± 0.07 | -0.59 ± 0.082
14 | UCUAAGCAAUAUUACGGGUG | -1.54 ± 0.076 | -0.964 ± 0.099
15 | UCGCAGCAAUAUUACGUGUG | -2.24 ± 0.074 | -2.33 ± 0.12
16 | UAAUAGCAAUAUUACGUUUG | -0.989 ± 0.099 | 0.00265 ± 0.12
17 | AUAUAGCAAUAUUACGCAUG | -1.66 ± 0.12 | -0.477 ± 0.14
18 | UGCGAGCAAUAUUACGCGGA | -2.41 ± 0.28 | -2.09 ± 0.31
19 | GGAAAGCAAUAUUACGCGUG | -0.941 ± 0.054 | -0.486 ± 0.071

Row | Sequence | self-splicing fitness (ln) (30 °C) | self-splicing fitness (ln) (37 °C)
20 | UAUCAGCAAUAUUACGACCU | -0.529 ± 0.071 | 0.112 ± 0.1
21 | GUUUAGCAAUAUUACGGGGG | -3.68 ± 0.37 | -1.82 ± 0.26
22 | CACAAGCAAUAUUACGCGGG | -3 ± 0.14 | -0.984 ± 0.12
23 | UUUAAGCAAUAUUACGCUUA | – | -3.03 ± 0.33
24 | ACGGAGCAAUAUUACGUUCU | -3.16 ± 0.31 | -2.52 ± 0.22
25 | CGACAGCAAUAUUACGUUCG | -2.52 ± 0.15 | -2.18 ± 0.22
26 | ACUUAGCAAUAUUACGGGUU | -3.42 ± 0.19 | -3.29 ± 0.3
27 | GAGAAGCAAUAUUACGGGUA | -2.02 ± 0.15 | -2.14 ± 0.16
28 | CAUGAGCAAUAUUACGACAA | – | -1.36 ± 0.33
29 | GGACAGCAAUAUUACGCCUA | -0.825 ± 0.11 | -0.478 ± 0.11
30 | AGCGAGCAAUAUUACGGGUC | -2.01 ± 0.13 | -2.66 ± 0.25
31 | UCUAAGCAAUAUUACGCCGA | -1.12 ± 0.19 | -0.156 ± 0.2
32 | UGAAAGCAAUAUUACGCAGU | -3.25 ± 0.22 | -1.3 ± 0.13
33 | GGUUAGCAAUAUUACGGCAU | -0.0374 ± 0.082 | -0.0754 ± 0.096
34 | CCCAAGCAAUAUUACGGGUA | -4.37 ± 0.28 | -2.81 ± 0.16
35 | AGGGAGCAAUAUUACGCAGA | – | -3.27 ± 0.43
36 | ACGUAGCAAUAUUACGUACU | -1.11 ± 0.11 | -2 ± 0.14
37 | CACUAGCAAUAUUACGGUUC | -2.4 ± 0.12 | -1.45 ± 0.16
38 | CUUGAGCAAUAUUACGUGGU | -2.61 ± 0.15 | -2.74 ± 0.19

From the supplement of paper PMC7877785
